Measurements: patent US20180237496A1 (DENALI THERAPEUTICS, published 2018)

Tests used:
[1] = biological target: T1, human transferrin receptor (TfR) ectodomain (ECD) (human, biotinylated where captured on streptavidin ; Biotinylated (NHS-biotin on amines, or BirA on the Avi-tag) where captured on streptavidin. It forms a homodimer, and the unique chain is given once.); test: phage ELISA, clone on phage, target coated on plate
T1 construct: made in HEK293; also called human TfR; huTfR; not shown: The C-terminal cleavable His- and Avi-tags
Method: (§1) FIGS. 1A-1D show phage ELISA results for four CH2A2 clones.
(§2) ELISA plates were coated with target, typically at […] overnight, then blocked with 1% BSA before addition of phage or periplasmic extracts. […] The plates were washed again, and then developed with TMB reagent and quenched with 2N sulfuric acid. […] Absorbance signal for tested clones was compared to negative control (phage or paraplasmic extract lacking Fc).
Target sequence in this assay (chain, as listed by the source limits assumed, form in doubt): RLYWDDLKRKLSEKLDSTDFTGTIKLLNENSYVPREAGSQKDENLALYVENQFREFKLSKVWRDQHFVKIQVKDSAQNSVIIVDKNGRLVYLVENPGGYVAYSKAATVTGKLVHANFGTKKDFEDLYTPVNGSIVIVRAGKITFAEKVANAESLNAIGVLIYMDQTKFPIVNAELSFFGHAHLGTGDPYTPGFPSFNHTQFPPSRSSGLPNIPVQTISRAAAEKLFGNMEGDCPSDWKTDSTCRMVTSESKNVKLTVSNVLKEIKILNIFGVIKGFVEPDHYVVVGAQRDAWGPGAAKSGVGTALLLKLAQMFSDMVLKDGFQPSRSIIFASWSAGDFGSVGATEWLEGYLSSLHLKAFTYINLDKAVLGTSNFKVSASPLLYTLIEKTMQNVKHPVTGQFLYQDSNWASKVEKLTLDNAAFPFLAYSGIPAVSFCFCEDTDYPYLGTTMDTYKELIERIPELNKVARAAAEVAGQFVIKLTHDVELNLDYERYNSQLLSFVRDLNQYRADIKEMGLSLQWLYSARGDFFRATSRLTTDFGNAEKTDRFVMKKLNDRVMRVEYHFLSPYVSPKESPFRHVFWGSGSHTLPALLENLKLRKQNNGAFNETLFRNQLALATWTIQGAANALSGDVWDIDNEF

[2] = biological target: T2, cynomolgus (cyno) transferrin receptor (TfR) ectodomain (ECD) (cynomolgus (cyno), biotinylated where captured on streptavidin ; biotinylated (sulfo-NHS-LC-biotin on amines or BirA on the Avi-tag) where captured on streptavidin); test: as above
T2 construct: made in HEK293; also called cyno TfR; cynoTfR; not shown: C-terminal cleavable His- and Avi-tags with their cleavage site
T2 chain: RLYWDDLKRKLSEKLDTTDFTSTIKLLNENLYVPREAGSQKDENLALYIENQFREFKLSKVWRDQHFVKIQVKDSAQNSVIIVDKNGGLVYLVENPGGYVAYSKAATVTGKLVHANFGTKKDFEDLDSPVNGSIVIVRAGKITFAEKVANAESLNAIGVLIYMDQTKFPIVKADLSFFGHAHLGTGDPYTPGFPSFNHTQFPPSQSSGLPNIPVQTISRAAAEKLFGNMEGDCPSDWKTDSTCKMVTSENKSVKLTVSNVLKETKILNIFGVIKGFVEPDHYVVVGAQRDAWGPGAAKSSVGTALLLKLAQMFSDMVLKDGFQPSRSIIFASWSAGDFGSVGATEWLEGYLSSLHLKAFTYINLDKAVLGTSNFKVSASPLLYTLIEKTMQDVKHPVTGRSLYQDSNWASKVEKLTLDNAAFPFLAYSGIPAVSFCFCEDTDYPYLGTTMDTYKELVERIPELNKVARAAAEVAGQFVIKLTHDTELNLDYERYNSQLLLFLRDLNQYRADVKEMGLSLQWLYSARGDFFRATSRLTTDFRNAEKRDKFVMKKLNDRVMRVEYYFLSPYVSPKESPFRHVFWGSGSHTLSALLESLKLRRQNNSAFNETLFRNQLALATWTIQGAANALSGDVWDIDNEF
Method: as §1, §2

[3] = biological target: T1, human transferrin receptor (TfR) …; test: ELISA, clone as Fc-Fab fusion, human TfR coated
[4] = biological target: T3, His-tagged permuted human TfR apical domain (TfR-AD) (human); test: size-exclusion chromatography of the mixed proteins
T3 construct: C-terminal His6; used for co-crystals (Expi293 or CHO); also called permuted TfR apical domain
T3 chain: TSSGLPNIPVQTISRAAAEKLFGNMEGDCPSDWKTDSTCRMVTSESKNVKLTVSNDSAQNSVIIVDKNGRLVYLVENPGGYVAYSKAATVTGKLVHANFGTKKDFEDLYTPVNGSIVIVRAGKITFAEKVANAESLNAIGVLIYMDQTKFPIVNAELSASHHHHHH

Binder	EC50 (read off the curve) [1]	EC50 (read off the curve) [2]	EC50 (read off the curve) [3] [nM]	binding result [4]
Clone CH2A2.4 (designed binder, modified human IgG1 Fc, phage display) PCPAPELLGGPSVFLFPPKPKDTLMISRTPEVTCVVVDVSHEDPEVSFEWYVDGVPVRWEWQWPREEQYNSTYRVVSVLTVLHQDWLNGKEYKCKVSNKALPAPIEKTISKAKGQPREPQVYTLPPSRDELTKNQVSLTCLVKGFYPSDIAVEWESNGQPENNYKTTPPVLDSDGSFFLYSKLTVDKSRWQQGNVFSCSVMHEALHNHYTQKSLSLSPGK	~0.02 OD268 (phage solution)	~0.02 OD268 (phage solution)	–	–
Clone CH2A2.1 (designed binder, modified human IgG1 Fc, phage display) PCPAPELLGGPSVFLFPPKPKDTLMISRTPEVTCVVVDVSHEDPEVEFIWYVDGVDVRYEWQLPREEQYNSTYRVVSVLTVLHQDWLNGKEYKCKVSNKALPAPIEKTISKAKGQPREPQVYTLPPSRDELTKNQVSLTCLVKGFYPSDIAVEWESNGQPENNYKTTPPVLDSDGSFFLYSKLTVDKSRWQQGNVFSCSVMHEALHNHYTQKSLSLSPGK	~0.03 OD268 (phage solution)	~0.04 OD268 (phage solution)	–	–
Clone CH2A2.5 (designed binder, modified human IgG1 Fc, phage display) PCPAPELLGGPSVFLFPPKPKDTLMISRTPEVTCVVVDVSHEDPEVAFTWYVDGVPVRWEWQNPREEQYNSTYRVVSVLTVLHQDWLNGKEYKCKVSNKALPAPIEKTISKAKGQPREPQVYTLPPSRDELTKNQVSLTCLVKGFYPSDIAVEWESNGQPENNYKTTPPVLDSDGSFFLYSKLTVDKSRWQQGNVFSCSVMHEALHNHYTQKSLSLSPGK	~0.008 OD268 (phage solution)	~0.01 OD268 (phage solution)	–	–
Clone CH2A2.16 (designed binder, modified human IgG1 Fc, phage display) PCPAPELLGGPSVFLFPPKPKDTLMISRTPEVTCVVVDVSHEDPEVWFEWYVDGVFVGVAYDVPREEQYNSTYRVVSVLTVLHQDWLNGKEYKCKVSNKALPAPIEKTISKAKGQPREPQVYTLPPSRDELTKNQVSLTCLVKGFYPSDIAVEWESNGQPENNYKTTPPVLDSDGSFFLYSKLTVDKSRWQQGNVFSCSVMHEALHNHYTQKSLSLSPGK	~0.04 OD268 (phage solution)	–	–	–
Clone CH2C.6 (designed binder, modified human IgG1 Fc, phage display) PCPAPELLGGPSVFLFPPKPKDTLMISRTPEVTCVVVDPKMPPWEVKFNWYVDGVEVHNAKTKPREEEYYTYYRVVSVLTVLHQDWLNGKEYKCKVSNKALPAPIEKTISKAKGQPREPQVYTLPPSRDELTKNQVSLTCLVKGFYPSDIAVEWESNGQPENNYKTTPPVLDSDGSFFLYSKLTVDKSRWQQGNVFSCSVMHEALHNHYTQKSLSLSPGK	–	–	~2	–
CH3C.18 Fc (expressed engineered human Fc) (designed binder, also called CH3C.18 Fc polypeptide) DKTHTCPPCPAPEAAGGPSVFLFPPKPKDTLYITREPEVTCVVVDVSHEDPEVKFNWYVDGVEVHNAKTKPREEQYNSTYRVVSVLTVLHQDWLNGKEYKCKVSNKALGAPIEKTISKAKGQPREPQVYTLPPSRDELTKNQVSLTCLVKGFYPSDIAVEWESLGHVWAVYKTTPPVLDSDGSFFLYSKLTVPKSTWQQGWVFSCSVMHEALHNHYTQKSLSLSPGK	–	–	–	binds
CH3C.35 Fc (expressed engineered human Fc) (designed binder) DKTHTCPPCPAPEAAGGPSVFLFPPKPKDTLYITREPEVTCVVVDVSHEDPEVKFNWYVDGVEVHNAKTKPREEQYNSTYRVVSVLTVLHQDWLNGKEYKCKVSNKALGAPIEKTISKAKGQPREPQVYTLPPSRDELTKNQVSLTCLVKGFYPSDIAVEWESYGTEWSSYKTTPPVLDSDGSFFLYSKLTVTKSEWQQGFVFSCSVMHEALHNHYTQKSLSLSPGK	–	–	–	binds
